Assay results taken from paper PMC10779274.
Where “and” joins values, the source holds several entries; their conditions need not be identical. Equal values may be shown once.

What was measured:
[1] = molecular target: Lsm protein of Haloferax mediterranei (Haloferax mediterranei); assay: SEC; HiPrep 16/60 Sephacryl S-200 HR, 20 mM Tris-HCl pH 7.5, 1 M NaCl, 0.5 mL/min, calibrated with protein standards; without RNA
[2] = molecular target: Lsm protein of Haloferax mediterranei (Haloferax mediterranei); assay: SEC; HiPrep 16/60 Sephacryl S-200 HR, 20 mM Tris-HCl pH 7.5, 2 M NaCl, 0.5 mL/min, calibrated with protein standards; without RNA
[3] = molecular target: Lsm protein of Haloferax mediterranei (Haloferax mediterranei); assay: SEC; HiPrep 16/60 Sephacryl S-200 HR, 20 mM Tris-HCl pH 7.5, 0.5 M NaCl, 0.5 mL/min, calibrated with protein standards; without RNA; peaks checked by Western blot with anti-Lsm
[4] = molecular target: Lsm protein of Haloferax mediterranei (Haloferax mediterranei); assay: SEC; HiPrep 16/60 Sephacryl S-200 HR, 20 mM Tris-HCl pH 7.5, 1.5 M NaCl, 0.5 mL/min, calibrated with protein standards; without RNA; peaks checked by Western blot with anti-Lsm

Lsm protein of Haloferax mediterranei (natural protein)
stoichiometry N [1]: 36 subunits | stoichiometry N [2]: 36 subunits | stoichiometry N [3]: 36 subunits | stoichiometry N [4]: 72 subunits and 36 subunits
